Measured values from article PMC10937199 (ESMO Open, 2024).

How the values were obtained:
Test in all cases: Safety
Assay type in all cases: in vivo, human
[1] = system: patients with advanced solid tumors; conditions: Part FE
[2] = system: patients with advanced solid tumors; conditions: Part A
[3] = system: patients with advanced solid tumors; conditions: Part B
[4] = peposertib 100 mg b.i.d., all grade
[5] = peposertib 100 mg b.i.d., grade ≥3
[6] = peposertib 200 mg b.i.d., all grade
[7] = peposertib 200 mg b.i.d., grade ≥3
[8] = peposertib 250 mg b.i.d., all grade
[9] = peposertib 250 mg b.i.d., grade ≥3
[10] = peposertib 300 mg b.i.d., all grade
[11] = peposertib 300 mg b.i.d., grade ≥3
[12] = peposertib 400 mg b.i.d., all grade
[13] = peposertib 400 mg b.i.d., grade ≥3
[14] = peposertib 100 mg q.d., all grade
[15] = peposertib 100 mg q.d., grade ≥3
[16] = peposertib 150 mg q.d., all grade
[17] = peposertib 150 mg q.d., grade ≥3
[18] = peposertib 200 mg q.d., all grade
[19] = peposertib 200 mg q.d., grade ≥3
[20] = peposertib 250 mg q.d., all grade
[21] = peposertib 250 mg q.d., grade ≥3

## Avelumab: anti-PD-L1 antibody, immune checkpoint inhibitor, 800 mg Q2W intravenous infusion [reference compound]
[1]; all dose levels
  Avelumab-related TEAE: diarrhea: 3 (33.3%)
  Avelumab-related TEAE: fatigue: 3 (33.3%)
[1]; [4]
  Serious TEAE, avelumab related: 1 (25.0) n (%)
  TEAE, avelumab related: 3 (75.0) n (%)
[1]; [5]
  Serious TEAE, avelumab related: 1 (25.0) n (%)
  TEAE, avelumab related: 1 (25.0) n (%)
[1]; [6]
  Serious TEAE, avelumab related: 2 (40.0) n (%)
  TEAE, avelumab related: 5 (100.0) n (%)
[1]; [7]
  Serious TEAE, avelumab related: 2 (40.0) n (%)
  TEAE, avelumab related: 3 (60.0) n (%)
[2]; all dose levels
  Avelumab-related TEAE: diarrhea: 4 (13.8%)
  Avelumab-related TEAE: fatigue: 5 (17.2%)
  Avelumab-related TEAE: rash: 5 (17.2%)
  Avelumab-related TEAE: vomiting: 4 (13.8%)
[2]; [4]
  Serious TEAE, avelumab related: 0 n (%)
  TEAE, avelumab related: 2 (50.0) n (%)
[2]; [5]
  Serious TEAE, avelumab related: 0 n (%)
  TEAE, avelumab related: 0 n (%)
[2]; peposertib 200 mg b.i.d.
  Avelumab-related pneumonitis: 9.1%
[2]; [6]
  Serious TEAE, avelumab related: 3 (27.3) n (%)
  TEAE, avelumab related: 8 (72.7) n (%)
[2]; [7]
  Serious TEAE, avelumab related: 3 (27.3) n (%)
  TEAE, avelumab related: 3 (27.3) n (%)
[2]; peposertib 250 mg b.i.d.
  Avelumab-related pneumonitis: 25.0%
[2]; [8]
  Serious TEAE, avelumab related: 3 (75.0) n (%)
  TEAE, avelumab related: 3 (75.0) n (%)
[2]; [9]
  Serious TEAE, avelumab related: 3 (75.0) n (%)
  TEAE, avelumab related: 3 (75.0) n (%)
[2]; peposertib 300 mg b.i.d.
  Avelumab-related pneumonitis: 16.7%
[2]; [10]
  Serious TEAE, avelumab related: 1 (16.7) n (%)
  TEAE, avelumab related: 3 (50.0) n (%)
[2]; [11]
  Serious TEAE, avelumab related: 1 (16.7) n (%)
  TEAE, avelumab related: 2 (33.3) n (%)
[2]; [12]
  Serious TEAE, avelumab related: 3 (75.0) n (%)
  TEAE, avelumab related: 4 (100.0) n (%)
[2]; [13]
  Serious TEAE, avelumab related: 3 (75.0) n (%)
  TEAE, avelumab related: 4 (100.0) n (%)
[3]; all dose levels
  Avelumab-related TEAE: IRR: 8 (42.1%)
  Avelumab-related TEAE: fatigue: 3 (15.8%)
[3]; [14]
  Serious TEAE, avelumab related: 1 (33.3) n (%)
  TEAE, avelumab related: 3 (100.0) n (%)
[3]; [15]
  Serious TEAE, avelumab related: 1 (33.3) n (%)
  TEAE, avelumab related: 1 (33.3) n (%)
[3]; [16]
  Serious TEAE, avelumab related: 1 (33.3) n (%)
  TEAE, avelumab related: 3 (100.0) n (%)
[3]; [17]
  Serious TEAE, avelumab related: 1 (33.3) n (%)
  TEAE, avelumab related: 1 (33.3) n (%)
[3]; peposertib 200 mg q.d.
  Avelumab-related pneumonitis: 25.0%
[3]; [18]
  Serious TEAE, avelumab related: 0 n (%)
  TEAE, avelumab related: 3 (75.0) n (%)
[3]; [19]
  Serious TEAE, avelumab related: 0 n (%)
  TEAE, avelumab related: 0 n (%)
[3]; peposertib 250 mg q.d.
  Avelumab-related pneumonitis: 11.1%
[3]; [20]
  Serious TEAE, avelumab related: 2 (22.2) n (%)
  TEAE, avelumab related: 7 (77.8) n (%)
[3]; [21]
  Serious TEAE, avelumab related: 2 (22.2) n (%)
  TEAE, avelumab related: 3 (33.3) n (%)
